Patent publication US20220195067A1 (LAMKAP BIO BETA, published 2022)
Where a chain is given by its changes, count along the chain named.

T1: his-tagged recombinant huCEACAM3 (R&D Systems, #9868-CM) (human, UniProt P40198 35-155)
T1 construct: Bought reagent; also called rec. hCEACAM3; recombinant soluble human CEACAM3; not shown: His tag
T1 sequence (looked up): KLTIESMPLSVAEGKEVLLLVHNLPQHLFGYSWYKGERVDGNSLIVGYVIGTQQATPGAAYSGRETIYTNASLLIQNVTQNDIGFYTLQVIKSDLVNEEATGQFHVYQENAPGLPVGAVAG

T2: human CEACAM5 on CEACAM5-expressing cancer cell lines (human, UniProt P06731 35-685)
T2 construct: whole, on cells; also called CEACAM5 on SK-CO-1, MKN-45, HPAF-II, SNU-C1, Ls174T, LoVo cells
T2 sequence (looked up): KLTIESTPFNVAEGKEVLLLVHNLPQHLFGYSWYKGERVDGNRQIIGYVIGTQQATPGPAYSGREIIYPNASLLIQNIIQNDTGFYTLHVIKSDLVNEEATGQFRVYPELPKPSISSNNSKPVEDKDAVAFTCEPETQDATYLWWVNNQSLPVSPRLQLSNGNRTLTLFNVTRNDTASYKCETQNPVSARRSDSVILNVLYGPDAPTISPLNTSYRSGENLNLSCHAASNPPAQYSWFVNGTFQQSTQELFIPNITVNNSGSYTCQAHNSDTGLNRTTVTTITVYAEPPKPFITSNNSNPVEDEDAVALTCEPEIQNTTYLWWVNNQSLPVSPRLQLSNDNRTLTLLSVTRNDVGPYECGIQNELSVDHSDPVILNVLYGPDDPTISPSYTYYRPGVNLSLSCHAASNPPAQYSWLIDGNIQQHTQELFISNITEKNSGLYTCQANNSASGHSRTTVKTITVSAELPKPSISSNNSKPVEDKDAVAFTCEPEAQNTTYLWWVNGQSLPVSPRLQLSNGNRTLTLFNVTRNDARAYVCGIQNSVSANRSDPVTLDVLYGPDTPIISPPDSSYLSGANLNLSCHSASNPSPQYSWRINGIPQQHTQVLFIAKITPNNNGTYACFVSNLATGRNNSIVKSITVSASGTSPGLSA

B1: K2AC84 (bispecific antibody, human IgG1, kappa, lambda)
heavy: not shown
light 1: QSVLTQPPSVSAAPGQKVTISCSGSSSNIGIGLVSWYQQLPGTAPKLLIYNVNTRPSGIPDRFSGSKSGTSATLGITGLQTGDEADYYCGTWDFSYRVDFGGGTKLTVLGQPKAAPSVTLFPPSSEELQANKATLVCLISDFYPGAVTVAWKADSSPVKAGVETTTPSKQSNNKYAASSYLSLTPEQWKSHRSYSCQVTHEGSTVEKTVAPTECS
light 2: not shown
notes: Kappa-lambda body; also called CD47xCEACAM5 bispecific antibody K2AC84; AC84 (CEACAM5 arm)
B2: K2AC22 (bispecific antibody, human IgG1, kappa, lambda)
heavy: not shown
light 1: B1 light 1 with G30A, I31N, L33I, N51F, V52D, T54L, R97G, V98I, D99V
light 2: not shown
notes: Kappa-lambda body, human IgG1, one arm for CEACAM5 and one for CD47; comparison antibody from WO2019234576; also called state of the art bispecific CEAxCD47 antibody K2AC22; CD47xCEACAM5 bispecific antibody K2AC22
B3: K2AC100 (bispecific antibody, human IgG1, kappa, lambda)
heavy: not shown
light 1: B1 light 1 with I31Y, V52G, T54I
light 2: not shown
notes: Kappa-lambda body; also called CD47xCEACAM5 bispecific antibody K2AC100; AC100 (CEACAM5 arm)

Biological target: T1, his-tagged recombinant huCEACAM3 (R&D …)
Experiment: BLI (Octet), his-tagged CEACAM3 on HIS1K biosensor, antibody as analyte
Procedure: The affinity of the anti-human CEACAM5 arms of the CD47×CEACAM5 bispecific antibodies of the invention for recombinant soluble human CEACAM3 was determined using the Bio-Layer Interferometry (BLI) technology and an OctetRED96 instrument. HIS1K biosensors (Sartorius), loaded with an anti-His tag antibody, were used to capture his-tagged recombinant huCEACAM3 (R&D Systems, #9868-CM). The measurement was performed at 30° C. After hydration, pre-conditioning and a baseline step in Kinetic buffer (PBS, 0.002% Tween 20, 0.01% BSA, Kathon; Sartorius), biosensors were loaded for 5 min with the recombinant huCEACAM3 at 5 μg/mL in Kinetic buffer. Then, biosensors were dipped into a serial dilution of k bodies, starting at 667 nM with a 2× dilution factor. The association and dissociation phases were monitored for 60 seconds and 120 seconds respectively. Biosensors were regenerated using 10 mM glycine pH 1.7. A standard acquisition rate was applied (5.0 Hz, averaging by 20). Curves were processed with a double reference subtraction, a Y alignment on the baseline and an interstep correction. The affinity was measured applying a 1:1 global fitting model on the full association step and the first 5 seconds of the dissociation step.

| Binder | Kd |
| --- | --- |
| B1 | 360 nM |
| B2 | 10000 nM |
| B3 | 700 nM |

Biological target: T2, human CEACAM5 on CEACAM5-expressing …
Experiment: flow cytometry on SNU-C1 cells (carry CEACAM5 and CD47), PE anti-human IgG Fc
Procedure: (§1) The binding of CD47×CEACAM5 bispecific antibodies was tested on CEACAM5-expressing human gastric adenocarcinoma cells (e.g. MKN-45), on CEACAM5-expressing human colorectal cancer cells (SK-CO-1, SNU-C1, Ls174T, and LoVo), and on CEACAM5-expressing pancreatic adenocarcinoma cells (HPAF-II).
(§2) Cells were harvested, counted, checked for viability and resuspended at 3×10⁶ cells/ml in FACS buffer (PBS 2% BSA, 0.1% NaN3). 100 μl of the cell suspension was distributed in V-bottom 96-well plates (3×10⁵ cells/well). The supernatant was removed by centrifugation 3 minutes at 4° C., 1300 rpm. Increasing concentrations of the antibody according to the invention were then added into the wells and incubated for 15 minutes at 4° C. Cells were washed twice with cold FACS buffer and re-incubated for further 15 minutes at 4° C. with the PE (R-phycoerythrin)-conjugated mouse anti-human IgG Fc secondary antibody (SouthernBiotech, pre-diluted 1:100 in FACS buffer). Cells were washed twice with cold FACS buffer and resuspended in 300 μl FACS buffer with 1:15000-diluted SytoxBlue (Life Technologies). Fluorescence, specifically mean fluorescence […] (MFI), was determined using a Cytoflex […] flow cytometer. Binding curves and […] and Emax values were obtained and calculated using GraphPad Prism7 software.

| Binder | EC50 | Emax (MFI) |
| --- | --- | --- |
| B1 | 2.47 nM | 370000 MFI |
| B2 | 10.7 nM | 240000 MFI |
| B3 | 3.27 nM | 300000 MFI |

Biological target: T2, human CEACAM5 on CEACAM5-expressing …
Experiment: flow cytometry on SK-CO-1 cells (carry CEACAM5 and CD47), PE anti-human IgG Fc
Procedure: as §1, §2

| Binder | EC50 | Emax (MFI) |
| --- | --- | --- |
| B1 | 12 nM | 1e+06 MFI |
| B2 | 24 nM | 520000 MFI |
| B3 | 14.7 nM | 900000 MFI |

Biological target: T3, human CD47 expressed at the surface of MKN-45 cells (human, UniProt Q08722 19-323)
T3 construct: whole, on cells; MKN-45 cells express both CD47 and CEACAM5; also called hCD47
T3 sequence (Q08722 19-323): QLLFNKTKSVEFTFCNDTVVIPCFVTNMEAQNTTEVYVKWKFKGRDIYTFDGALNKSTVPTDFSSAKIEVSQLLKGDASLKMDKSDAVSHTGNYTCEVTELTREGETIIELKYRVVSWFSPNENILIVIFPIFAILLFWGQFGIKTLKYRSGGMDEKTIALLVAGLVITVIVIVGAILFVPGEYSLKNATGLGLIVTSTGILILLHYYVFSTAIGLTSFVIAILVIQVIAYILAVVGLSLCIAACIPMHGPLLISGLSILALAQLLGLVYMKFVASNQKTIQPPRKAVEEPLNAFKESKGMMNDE
Experiment: CD47/SIRPα blocking assay on MKN-45 cells (carry CD47 and CEACAM5), imaging of bound SIRPα-mouseFc
Text: The cell-based assay monitoring the interaction of soluble SIRPa with human CD47 expressed at the surface of MKN-45 cells as described below was used for the detection of the blocking activity. Concentration-response experiments with bispecific antibodies according to the invention allowed determination of inhibition curves (see FIG. 4) and of IC50 values (see Table 12).
MKN-45 cancer cells, expressing both CD47 and CEACAM5, were stained with CFSE violet to allow the imaging system (CX5) to detect the cells. Briefly, 3'000 stained MKN-45 cells per well were seeded in a 384 optical well plate (Costar) and incubated for 50 minutes with increased concentrations of bispecific antibodies of the invention ([…] to 333 nM, in quadruplicates). Then, a fixed concentration of SIRPα-mouseFc premixed with anti-mouse IgG-Fc AF647 coupled antibody (Jackson Immunoresearch diluted 1:2000) was added at 50 ng/mL final. After an incubation of 3 hours and 30 minutes, images of the fluorescence signals emitted by the detected bound SIRPa on the plates were acquired with the imaging system (CX5, Thermo Fisher). Fluorescence signals (mean fluorescence intensity MFI) were plotted according to the dose range tested, and IC50 was calculated by the software (Prism, GraphPad).

| Binder | IC50 |
| --- | --- |
| B1 | 0.04 nM |
| B2 | 1.2 nM |
| B3 | 0.09 nM |
